# Key:
# [1] = target: human TIGIT-Fc protein (human) (UniProt Q495A1); assay: SPR, Biacore T200, antibody captured on anti-mouse IgG, TIGIT-Fc in solution, 1:1 Langmuir fit
# [2] = target: Human TIGIT-His (extracellular domain of hTIGIT with a histidine tag) (human) (UniProt Q495A1); assay: SPR, Biacore T200, antibody captured on anti-mouse IgG, TIGIT-His in solution, 1:1 Langmuir fit
# [3] = target: human TIGIT expressed on cells (human) (UniProt Q495A1); assay: cell-based or functional assay
# human TIGIT expressed on cells (human), sequence (Q495A1 25-244): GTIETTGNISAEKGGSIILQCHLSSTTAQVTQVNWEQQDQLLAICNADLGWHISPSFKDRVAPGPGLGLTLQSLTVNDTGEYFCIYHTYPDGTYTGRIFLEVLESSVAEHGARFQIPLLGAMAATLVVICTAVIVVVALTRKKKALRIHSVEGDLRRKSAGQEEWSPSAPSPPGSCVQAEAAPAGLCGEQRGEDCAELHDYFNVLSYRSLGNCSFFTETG
# human TIGIT-Fc protein (human), sequence (Q495A1 25-141): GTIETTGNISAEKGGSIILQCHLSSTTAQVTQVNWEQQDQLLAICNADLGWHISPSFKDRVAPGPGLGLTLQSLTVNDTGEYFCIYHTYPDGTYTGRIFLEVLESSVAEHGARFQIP
# Human TIGIT-His (extracellular domain of hTIGIT with a histidine tag) (human), sequence (Q495A1 25-141 limits assumed): as the sequence (Q495A1 25-141) above
substance,measurement,setting,value
"MBSA43 (commercial mouse anti-human TIGIT antibody, eBioscience Cat #12-9500-42)",Kd,[1],0.0165 nM
same,Kd,[2],0.0363 nM
same,EC50 of IL-2 rescue in hTIGIT-Jurkat / THP-1 co-culture,[3],0.24 µg/mL

# — US20200270346A1
